Values of other authors in PMC6293969.

What was measured:
SRSF1 (Homo sapiens) = SRSF1 (Homo sapiens) (UniProt Q07955)
CLK1 (Homo sapiens) = CLK1 (Homo sapiens) (UniProt P49759)
Chain of UniProt P49759 (P49759 whole entry): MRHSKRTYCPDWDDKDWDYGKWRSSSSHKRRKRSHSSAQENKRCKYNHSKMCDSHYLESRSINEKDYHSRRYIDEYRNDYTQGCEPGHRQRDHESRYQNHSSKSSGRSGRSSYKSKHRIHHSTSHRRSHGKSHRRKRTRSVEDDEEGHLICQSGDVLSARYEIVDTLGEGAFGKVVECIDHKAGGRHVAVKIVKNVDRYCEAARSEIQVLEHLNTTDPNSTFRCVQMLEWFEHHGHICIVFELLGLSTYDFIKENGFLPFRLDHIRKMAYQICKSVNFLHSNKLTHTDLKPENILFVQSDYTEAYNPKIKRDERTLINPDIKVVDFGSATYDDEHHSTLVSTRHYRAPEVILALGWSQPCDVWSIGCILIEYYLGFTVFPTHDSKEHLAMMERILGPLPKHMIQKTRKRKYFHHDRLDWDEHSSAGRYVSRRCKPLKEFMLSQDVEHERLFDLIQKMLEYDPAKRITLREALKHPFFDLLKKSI

Chain of UniProt Q07955 (Q07955 2-248): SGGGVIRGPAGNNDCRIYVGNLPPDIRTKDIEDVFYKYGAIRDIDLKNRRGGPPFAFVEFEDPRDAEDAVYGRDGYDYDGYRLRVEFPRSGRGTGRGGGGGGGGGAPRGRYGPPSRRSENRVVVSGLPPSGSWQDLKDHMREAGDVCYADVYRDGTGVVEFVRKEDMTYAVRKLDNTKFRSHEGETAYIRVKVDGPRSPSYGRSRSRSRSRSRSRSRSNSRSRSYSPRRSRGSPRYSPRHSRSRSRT

## SRPK1 (from UniProt Q96SB4)
SRSF1 (Homo sapiens)
  Kd: 100 nM
CLK1 (Homo sapiens)
  Kd: 20 nM
